Experiment: label from the status in PepcDB records

Row | Sequence | protein production
1 | MAGAQPGVHALQLEPPTVVETLRRGSKFIKWDEETSSRNLVTLRVDPNGFFLYWTGPNMEVDTLDISSIRDTRTGRYARLPKDPKIREVLGFGGPDARLEEKLMTVVSGPDPVNTVFLNFMAVQDDTAKVWSEELFKLAMNILAQNASRNTFLRKAYTKLKLQVNQDGRIPVKNILKMFSADKKRVETALESCGLKFNRSESIRPDEFSLEIFERFLNKLCLRPDIDKILLEIGAKGKPYLTLEQLMDFINQKQRDPRLNEVLYPPLRPSQARLLIEKYEPNQQFLERDQMSMEGFSRYLGGEENGILPLEALDLSTDMTQPLSAYFINSSHNTYLTAGQLAGTSSVEMYRQALLWGCRCVELDVWKGRPPEEEPFITHGFTMTTEVPLRDVLEAIAETAFKTSPYPVILSFENHVDSAKQQAKMAEYCRSIFGDALLIEPLDKYPLAPGVPLPSPQDLMGRILVKNKKRHRPSAGGPDSAGRKRPL | failed
2 | MLTLLPTPIGNLQDITLRSLEVLKVAEIILCEDTRVSKRLLSLLSQKELLPPKEYRYISLHSHNEEATLQNLPPDFFTQEVVYMSDAGMPCISDPGAALVRYAQERGISYTVLPGA | failed
3 | MFASLVIPVSAQANSGEMPQEQQLAVKYMDALTEHDYKTLITFYNRDSIFFDKTANRKYTGGRFIIDFLERAHQGVLEYDFNIEHMYNAGSLVVMIGNYHFKGPGEQFGKPGKIIDVAIPAVTSLKLDMLNRRVTEHVDLIDYQTMSDQLAMQ | not failed
4 | MKPGGTVRALDRLGSAEYPSSHMEVLVAEGTRPSRQRNQAAAAAAGEILYFLDDDSLTSPDFLARAAAHLADPSIAAVGGPSLTPASDSRFQRAIGVVLASRLGGGGARNRYRATGSPRRTSERELILCNLAMRRDVFLAEGGLDERLYPNEENELMDRISKRGMSLVHDPDLAVRRSQRPTFRAFVRQFFGYGRGRGEQTRIAGVRSVVDFLPTVFLIYLLLLPVAPWAPCFLPAALYGAAVMVSALSGAVHSRLYAALPWLVVLYPTLHLCYGAGLLKGLLAPRFRSGGGETAPVTIRCVKEFGTPWHLPAHGPREVPR | failed
5 | MSDWPPKPQNEVQNSNNKTGQEWQILEKAVLASVEEQRRTRRWGIFFKFLTFLYLLFVFVLLGRGCTTSESSGGTSSSTAHLAVVNIIGTIDSSNQSVNSEDTNKALERAFEAKNSKAVALNINSPGGSPVQSDEIWQEIRYLKKQHPDKKVYAVIGDMGASGAYYIASAADEIIVNPSSLVGSIGVIMPNYGITGLAQKLGIEDRTLTSGSNKDILSMTKPVNPAQREHIQSVLDNVHAHFINAVKEGRGTRLKSNDPAIFSGLFWTGEQAIQLGVADRTGNLDTLMRELKVENKVNYTIERSPFESILGKMGSELGQGISQSVSQQLKTEQQAKLQ | failed
6 | MGMTVVIILVFSFFVAIVTAETSPYIIHMDLSAKPLPFSDHRSWFSTTLTSVITNRKPKIIYAYTDSVHGFSAVLTNSELQRLKHKPGYVSFTKDLPVKLHTTFSPKFIGLNSTSGTWPVSNYGAGIVIGIIDTGIWPDSPSFHDDGVGSVPSKWKGACEFNSSSLCNKKLIGAKVFNKGLFANNPDLRETKIGQYSSPYDTIGHGTHVAAIAAGNHVKNASYFSYAQGTASGIAPHAHLAIYKAAWEEGIYSSDVIAAIDQAIRDGVHVISLSLGLSFEDDDDNDGFGLENDPIAVASFAAIQKGVFVVTSGGNDGPYYWSLINGAPWIMTVGAGTIGRQFQGTLTFGNRVSFSFPSLFPGEFPSVQFPVTYIESGSVENKTLANRIVVCNENINIGSKLHQIRSTGAAAVVLITDKLLEEQDTIKFQFPVAFIGSKHRETIESYASSNKNNATAKLEFRKTVIGTKPAPEVGTYSSRGPFTSFPQILKPDILAPGTLILSAWPSVEQITGTRALPLFSGFNLLTGTSMAAPHVAGVAALIKQVHPNWSPSAIKSAIMTTALTLDNPLAVGAGHVSTNKVLNPGLIYDTTPQDFINFLCHEAKQSRKLINIITRSNISDACKKPSPYLNYPSIIAYFTSDQSSPKIFKRTLTNVGEAKRSYIVRVRGLKGLNVVVEPKKLMFSEKNEKLSYTVRLESPRGLQENVVYGLVSWVDEDEAEFEVSCSVVATSLVQES | failed
7 | MTQNVLNERPAGQKPVALSSFRGCINGLYGDVLQGWAIDITQPDQRPVIEVFVDGASVALARADQHEPNAPHGDHFHGFTVQLRQSLLADANRITAQIANTGIHLEGEIELPSQPPQETAAVASQVWHTGGLRVGGWSWDPQAPHRHVVVTLREGSRVVAQVTCNTHHQALAYRATSDHGFAIDLPWELADGKLHVIEVTNDLGQSLPGSPIRLRCRPEGLEGLLHQLELKPDAAMQALVAEVAKEQSSRLPKSAGWQHYPRWYDAFQKREPIAAIPSRFRPGLLLLSEGDATLEKISLDSLGDDAESVHQLAKAAPADLLPAVEQLLAAGCDSIIQIAAGDKLAPRAMAQLRNLLEEGCAWAYADCDRDGPQGQRSQPWFKPVWDIDLFIGADIFSTGAIFSAAIVKEALALLKAGKKQSAINRHDLIAGIALATELNGRSVTHLPRVLYHRSSDTCTSPEQAAPSKQRKDAVAWLCQGLAPGAHVSAVPDYPALLRAHWPLPEQLPRVSLIVPTRDQYKLLHACIEGLLNNTDYPDLEIIVVDNQSTDPQTLAYLAELKQRGVKILAHPHPFNYSTINNRAASAATGELIGLVNNDIEIIESGWLKEMVSQALRPGIGAVGAKLLWPNRMVQHGGVVVGVNGLAAHAGNTLEQRDAGYLGMNQVTRRQSAVTAACLLLRKSLFDSIQGLDERAFPVAFNDVDLCLRIHELGLRNVWTAFAQLIHAESASRGKDISPEKMARAQREQQLFTERWSVSYRDPYYHPALSLDYLTGPYGGLSLPPEPEYCAPRKLASSETHGHIYLADPS | failed
8 | MAELIHSTIGRLLEQTADAYPDRDAVVYPDRNIRYTYAQFDSLCRQTAKGLMRMGIGKGDHVAIWASNISEWLAVQFATAKIGAVLVTVNTNYQAHELDYLLKQSDAAALIIMDSYRGTSYPDIVNSLIPELQEAKPGQLKSERYPFLKTLIYIGNKRLSGMYHWDDTEILAKTVTDAELEERMNSLDKDNVINMQYTSGTTGFPKGVMLTHFNVINNAANIAECMALTSQDRMCIPVPFFHCFGCVLGVLACVSVGAAMIPVQEFDPVTVLKTVEKEKCTVLHGVPTMFIAELHHPDFDAYDLSTLRTGIMAGSPCPSEVMKAVIERMGMKDITIAYGQTEASPVITQTRANDSFIRRVETTGRALPHTEVKIVEPGTCQEVQRGMQGELCTRGYHVMKGYYKDKDATRKAINHDGWLFTGDLAVMDEDGYCRITGRLKDMLIRGGENIYPREIEEFLYQHPAVLDVQVVGVPDAKFGEEAAAWIKLKDGKSVSPDELKAYCKGKIARHKIPRYVIFTDDYPMTASGKIQKY | not failed
9 | MPRCIIYVDFPCWHPVRQRPLRVRGRFRTFVRSHAFPSPPVSDPSPSSSDASPPDALVIIPTYNEADNIGPVIDQVLEQSPPLSVLVVDDNSTDGTADLVRSKKTDALDRVHLIERSGKLGLGTAYLRGFRYALAQDYTYICEMDADRSHDPNDLPRLIAPVREGEVALAIGSRYVEGVRVINWPLSRLVLSYGAGVYTRAITRLPLLDVTAGFKCFHRRVLETLPLDRVNSDGYAFQVEMHYRTWRAGFPFTEVPVVFTERTEGESKMRREIVVEAALKVWELRLQDLLGRL | failed
10 | MFALPQAGDRRGEIIKVLLSNGWDYMNGLLTLGKVGEPQIPTPEVLTKILVELGPFYIKLGQLLSTRPDLLPPRYINALTALQSNVPPLPWSAIEDLLQREFPQPLGETFQEIESEPIAAGSIGQIHRAVLQSGETVAIKVKRPGIDVIVEQDSLLIKDVAELLALTEFGQNYDIVKLADEFTQTVKAELNFDTEAAYTNNLRTNLAKTTWFDPNQLVIPKVYWELTNQKFLVLEWLDGVPILTADLTQPPSDKDIAEKKKEITTLLFRAFFQQLYVDGFFHADPHPGNIFYLADGRLALIDCGMVGRLDPRTRQLLTEMLLAIVDLDAKRCAQLTVELSESVGRVNFQRLEVDYERMLRKYYDLSLSEFNFSEVVYEFLRIARVNKLKVPACLGLYAKCLANLEGAG | failed
11 | MNNSINHKFHHISRAEYQELLAVSRGDAVADYIIDNVSILDLINGGEISGPIVIKGRYIAGVGAEYTDAPALQRIDARGATAVPGFIDAHLHIESSMMTPVTFETATLPRGLTTVICDPHEIVNVMGEAGFAWFARCAEQARQNQYLQVSSCVPALEGCDVNGASFTLEQMLAWRDHPQVTGLAEMMDYPGVISGQNALLDKLDAFRHLTLDGHCPGLGGKELNAYITAGIENCHESYQLEEGRRKLQLGMSLMIREGSAARNLNALAPLINEFNSPQCMLCTDDRNPWEIAHEGHIDALIRRLIEQHNVPLHVAYRVASWSTARHFGLNHLGLLAPGKQADIVLLSDARKVTVQQVLVKGEPIDAQTLQAEESARLAQSAPPYGNTIARQPVSASDFALQFTPGKRYRVIDVIHNELITHSHSSVYSENGFDRDDVSFIAVLERYGQRLAPACGLLGGFGLNEGALAATVSHDSHNIVVIGRSAEEMALAVNQVIQDGGGLCVVRNGQVQSHLPLPIAGLMSTDTAQSLAEQIDALKAAARECGPLPDEPFIQMAFLSLPVIPALKLTSQGLFDGEKFAFTTLEVTELEHHHHHH | not failed
12 | MKKGRFKRNWPIILFGIIVFIFSFYFKISPKSLKNFTDIMSASLSFSAIVTAIFFASFSLIPTSGSNKLVVMMEDLGTEIKIMDRLLVATFLSFISSLLSFISLFFSKTDTDLISILVVSSWLSSTVMMFLSSFFVLRTLILLVETYNNFKNK | failed
13 | MTTLTRQDLNFGQVVADVLSEFLEVAVHLILYVREVYPVGIFQKRKKYNVPVQMSCHPELNQYIQDTLHCVKPLLEKNDVEKVVVVILDKEHRPVEKFVFEITQPPLLSINSDSLLSHVEQLLRAFILKISVCDAVLDHNPPGCTFTVLVHTREAATRNMEKIQVIKDFPWILADEQDVHMHDPRLIPLKTMTSDILKMQLYVEERAHKNS | not failed
14 | MKKTIEKILKDIIDATSITDMCDKSVCHWLQPVVDTIVFPEYYLFSSNHLKENIISLLIVLGVLLIFGLIVEEMMKRIFRKNEEKYMWVHKIFEKVIVAFLLFYSMKTIIYFIALKHHSF | failed
15 | MAFGSFARSGGSSRFLFTAGRMAQQLTVSIGQASSPGRKPVNQDFYGALIPAEPLLITKGIALALADGISSSDISQVASESAVKSFLTDYYCTSEAWSVKSSAQRVIAATNSWLHAETRRSDYRYDRDKGYVCTLSALVIKGAAAHLFHIGDSRIYRLAGASLEQLTEDHRVRLSAEQSYLGRALGVNPQVEIDYLSVPIGSGDLFVLATDGVYEHVAHRFVVQTLRDHGDDLDAAARAIVGEAFNNGSDDNLTVQVVRIESVPGADSIDLFERVAELPLPPLLEPRAEFDGYRIIRELHGSSRSHIYLASDLATGELVVLKIPSADLRDDPEYRKRFMLEEWAARRIDSPHVLKPCVVQRPRSYLYVTFEYIEGQTLAQWMIDHPRAELETVRGLIEQIAKGLYAFHRKEMVHQDLRPANVLIDRSGTVKIIDFGSVRVAGVAELGPAGGDELLGTVQYMAPEYFAGQGGSALSDQFSLGVIAYQMLTGRLPYGAELARANQALKSRKLRYSAAADHNAKVPVWVDRALQRAVSLDPAKRYPALSEFVHDLRHPRADYLDARPQPLAARNPLLFLQLLSALLALIVVGLLARLHGSI | failed
16 | MVLAGGVGKRLLPLTRERPKPYLPLAGKPLYMYAVEQVAMVRSLLDRAVMVTPPGHPTPPGSLPSWLDTVEQQGEGVEAGLATALKRLGGGEEVVVSFVGYLARPNTLVRHVLDFYSVTRYKLVLALAPVTRGSESFGFVDADPSTGRVLGFSGSREEWMAGRGRVFAGVLAGDPEALEVLAGEGFVEGINTLARRGLVGSVVWPGEWLEVGYPCDLLEAPRLVVEAWAAVISAKARVARSSVIQGGVVIEEDAEVGEGAVVEGPAYLGRGAVVGRNSVVGPGVVLEEGAVVGDLVSIERSVMLERAEASGPSRLEGVVIGDGAYIAPLAAATNREGCTVVAPKTRLGPRATLEPGKTYTLEHHHHHH | failed

From a protein production outcome set (Wang et al. 2014)
